Source: patent US20250011422A1 (UNIVERSITY OF FLORIDA RESEARCH FOUNDATION, published 2025)

Tests used:
[1] = molecular target: T1, human Siglec-6 on the cell surface (U937, MEC1-002, MEC1-hS6, primary CLL cells) (human, UniProt O43699 27-453); assay: cell-based or functional assay
[2] = molecular target: T1, human Siglec-6 on the cell surface …; assay: cell-based or functional assay; remark: listed apart in the source
CD3 on human T cells [3] = molecular target: T2, CD3 on human T cells (human, UniProt P07766 23-207); assay: flow cytometry titration on primary human T cells
T2 construct: whole, on cells; CD3 is a complex; also called CD3+ cells
Description: (§1) To determine whether T-biAb format affected the affinity to Siglec-6 or CD3 on the cell surface, T-biAbs were titrated and used to stain cells for flow cytometry (FIG. 17a).
(§2) Flow cytometry: Fabs were used to stain cells at a concentration of 2 μg/mL, unless otherwise noted. […] Samples were analyzed on either an Accuri C6 Plus or a LSRII flow cytometer (both from BD Biosciences).

[4] = molecular target: T1, human Siglec-6 on the cell surface …; assay: flow cytometry titration on MEC1-hS6 cells, apparent Kd; scFv-Fc format, RC-1 clone
Description: as §1, §2

Siglec-6 VC28-235-His6 = molecular target: T3, Siglec-6 VC28-235-His6 (human, UniProt O43699 28-235); assay: SPR, T-biAb immobilised via the Fc domain, soluble Siglec-6 (aa 28-235-His6) injected
T3 construct: It was deglycosylated with PNGase F for HDX-MS; also called soluble Siglec-6 (aa 28-235-His6); Siglec-6 ectodomain fragment
Description: Fab kinetics were determined by capturing Siglec-6-Fc (5-10 μg/mL) in HBS-EP+ buffer (Cytiva) and injecting titrated. […] Biacore evaluation software was used to calculate kₒₙ, koff, and Kd.

CD3 on human T cells [5] = molecular target: T2, CD3 on human T cells; assay: flow cytometry titration on primary human T cells, Alexa Fluor 647 anti-human Fc secondary antibody, percent biAb+ cells
Description: as §1, §2

T1 sequence (O43699 27-453): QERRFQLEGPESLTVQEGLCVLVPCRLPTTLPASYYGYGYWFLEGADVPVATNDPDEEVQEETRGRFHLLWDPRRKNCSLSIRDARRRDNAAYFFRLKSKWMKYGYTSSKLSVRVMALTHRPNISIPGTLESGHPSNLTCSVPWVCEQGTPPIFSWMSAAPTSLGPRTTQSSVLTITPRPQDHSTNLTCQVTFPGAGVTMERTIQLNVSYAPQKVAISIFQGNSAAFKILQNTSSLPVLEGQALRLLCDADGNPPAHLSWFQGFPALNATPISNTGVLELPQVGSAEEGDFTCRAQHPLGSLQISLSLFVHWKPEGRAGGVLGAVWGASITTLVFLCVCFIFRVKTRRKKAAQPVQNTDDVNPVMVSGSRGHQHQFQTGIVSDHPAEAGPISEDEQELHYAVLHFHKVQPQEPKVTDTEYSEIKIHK
T3 sequence (O43699 other isoform, or with tags, fused parts or gaps limits assumed): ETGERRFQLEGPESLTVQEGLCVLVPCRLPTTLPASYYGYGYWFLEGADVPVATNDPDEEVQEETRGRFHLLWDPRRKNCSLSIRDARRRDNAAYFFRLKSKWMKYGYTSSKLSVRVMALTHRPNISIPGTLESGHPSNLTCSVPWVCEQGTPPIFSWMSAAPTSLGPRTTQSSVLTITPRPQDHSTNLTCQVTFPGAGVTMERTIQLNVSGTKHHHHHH
T2 sequence (P07766 23-207): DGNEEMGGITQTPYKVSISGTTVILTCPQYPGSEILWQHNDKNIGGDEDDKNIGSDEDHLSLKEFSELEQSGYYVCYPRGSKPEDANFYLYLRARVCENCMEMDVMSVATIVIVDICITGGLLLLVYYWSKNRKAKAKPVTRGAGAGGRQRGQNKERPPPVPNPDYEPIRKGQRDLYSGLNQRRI

B1: RC-1/V9 scFv-Fc (bispecific antibody)
chain 1: not shown
chain 2: EVQLVESGGGLVQPGGSLRLSCAASGYSFTGYTMNWVRQAPGKGLEWVALINPYKGVSTYNQKFKDRFTISVDKSKNTAYLQMNSLRAEDTAVYYCARSGYYGDSDWYFDVWGQGTLVTVSSGGGGSGGGGSGGGGSDIQMTQSPSSLSASVGDRVTITCRASQDIRNYLNWYQQKPGKAPKLLIYYTSRLESGVPSRFSGSGSGTDYTLTISSLQPEDFATYYCQQGNTLPWTFGQGTKVEIKEPKSSDKTHTCPPCPAPELLGGPSVFLFPPKPKDTLMISRTPEVTCVVVDVSHEDPEVKFNWYVDGVEVHNAKTKPREEQYASTYRVVSVLTVLHQDWLNGKEYKCKVSNKALPAPIEKTISKAKGQPREPQVCTLPPSRDELTKNQVSLSCAVKGFYPSDIAVEWESNGQPENNYKTTPPVLDSDGSFFLVSKLTVDKSRWQQGNVFSCSVMHEALHNHYTQKSLSLSPGA
notes: Knobs-into-holes heterodimer of the RC-1 scFv-Fc knob arm and the shared anti-CD3 V9 scFv-Fc hole arm; also called RC-1 clone in scFv-Fc format
[1]
  specific lysis of MEC1-hS6 by healthy donor T cells, EC50: 0.003 nM
  specific lysis of primary CLL cells by autologous T cells, day 11, median: 2.4%
[2]
  EC50 (read off the curve), NFAT reporter activation with MEC1-002 cells: ~0.1 nM
CD3 on human T cells [3]
  fold more potent binding than the aDART-Fc: ~2 fold
[4]
  Kd: 1.1 nM
Siglec-6 VC28-235-His6
  Kd: 0.1 nM
  koff: 0.00031 s⁻¹
  kon: 3.05e+06 M⁻¹ s⁻¹
CD3 on human T cells [5]
  EC50 (read off the curve): ~0.05 nM
